For data set [1], the system named is T1, XssQ (Synechocystis sp. PCC 6803), ORF:81bb7109.
T1 sequence: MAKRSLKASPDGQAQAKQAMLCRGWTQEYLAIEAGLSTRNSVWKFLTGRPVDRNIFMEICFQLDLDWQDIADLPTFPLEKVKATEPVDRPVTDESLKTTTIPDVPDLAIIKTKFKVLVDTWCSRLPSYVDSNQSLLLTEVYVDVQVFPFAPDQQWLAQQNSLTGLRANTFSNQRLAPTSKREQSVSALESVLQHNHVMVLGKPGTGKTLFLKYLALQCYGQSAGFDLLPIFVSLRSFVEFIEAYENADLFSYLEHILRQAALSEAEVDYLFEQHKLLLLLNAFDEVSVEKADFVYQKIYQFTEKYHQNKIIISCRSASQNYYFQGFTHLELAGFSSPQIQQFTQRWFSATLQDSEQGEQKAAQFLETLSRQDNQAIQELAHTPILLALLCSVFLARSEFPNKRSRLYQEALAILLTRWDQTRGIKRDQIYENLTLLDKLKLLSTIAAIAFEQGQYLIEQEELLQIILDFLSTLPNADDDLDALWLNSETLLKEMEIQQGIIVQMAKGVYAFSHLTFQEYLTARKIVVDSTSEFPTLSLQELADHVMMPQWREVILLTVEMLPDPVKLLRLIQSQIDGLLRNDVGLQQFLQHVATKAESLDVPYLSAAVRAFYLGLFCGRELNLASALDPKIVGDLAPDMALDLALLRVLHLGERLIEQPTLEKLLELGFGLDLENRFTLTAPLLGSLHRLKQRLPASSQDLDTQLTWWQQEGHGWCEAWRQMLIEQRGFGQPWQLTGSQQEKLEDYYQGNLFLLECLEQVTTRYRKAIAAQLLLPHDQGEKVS
Description: EMSA. The note with it: 30 min at room temperature, buffer, salt and pH not given (refers to Hirose 2010, Maeda 2014, Midorikawa 2009).

Data set [2] shares this test system. Description: competition. To be noted: EMSA, 30 min at room temperature; buffer, salt and pH not given (refers to Hirose 2010, Maeda 2014, Midorikawa 2009).

We go through 1 sequence from paper PMC8205485.

Take “ATCTTTAAAGCCCCAGTCCCGATCGCCAGCGGTTAAACAGGTAAAAAAACAGAAGCAGAAATCTAGTGAGCAGGGGAAACTCAAAACCAAGCCGGGGCGCTCAAAGTCAGGGTCAGGCAAAAGGTCTAAAGTTAGACGCAAAGTTGTACATAGGGCAGGCACGAAATCAGACAGCGATCCATCAAGCTAAGAACAGGTTGCAATTGCCCATCTCACGATCGCCGTCACGCCCCCATGAACACTTCTTTCCT (double strand) [xssE upstream probe / native competitor]”: the binding result in data set [1] and in data set [2] was “binds” throughout.
